This note sets out measurements from the NTF2 design screens of Basanta et al. (2020).

The nature of the data set: protease stability score; higher = more stable; yeast display proteolysis, trypsin and chymotrypsin.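 Further: log10 excess protease needed over predicted unfolded state with 0 meaning unfolded.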
Sequence “EDELRTMVDQVMEAQKTGDFDKFIEQFDPNAHRRVGDKEVEGQEEMRHEQKRRDDNIRVDYNRMSVQVSNGVAKLTVHLNAHVNGKPVRLTIDIVFHARNGRFQSMQVDFTREQEKRKRS” showed a protease stability score of -0.213. Regarding “EDEMRKLAHKVMTAHQTGDPDRIARLMDPNVQVKVGDKTIHGKHQLKRKLTKDLKEMRVHIKSVKFSVQGDKVEVRANLVSRHNGQPHESTVDVRITARGDKLKHLNNQETQ”, the protease stability score was -0.263. The result for “EDENMETMKDLLRAWQEGDEDRAQENADKDVTVEYGDRSFHGRSQLHRLVKERREKMRVQIKDVRFDISGDKIKIDLTYTKDHNGRPETRRVRIIARVNNGKVKFVRLDEHG” reads 0.652; that for “EDENRKRIEHFLEVKEHGNPDEAKRLADPNVHLKVGDQTVHGRSQLSKILEKEVKEIRFSMQIDSYDDRPGRIKMSATMVLNINGQPIKVTFDAEYVLDNGRISHVEIRMDPTRLHEIKK”, 0.64.

In turn, “EDENRSNIEDMIRAWNQNNPDEWRELADPNVKVQIGEKSIRGREEIAKDLKQMHKEIEVHFNLKRVRVQGDKAEVEMEFSNNHNGKPRSDNVVYDVLVDNGRIKSVKQNQVS” showed a protease stability score of -0.141.

“EDENTRKFVQYLKILKDGNEQELKKDMDPNAHIKVGDKTLSGMDKITDDVRRKLEEMTVDFTTVSAKAENGRLDVNMSLNNEVNGRPRSDDVTIEVRIHNGKFDHIIYHMDPNRLKEVER” yielded a protease stability score of -0.104. Sequence “EDEVLKELLEAVRHNDPDKIKELIDPNARFRVGDKSLHGMEEAAEQYARMMKRVDHIQIDSMSAHGDTFTVDQRFHFDGRTLSVTIRIRIHNGRIEELVIEVRSEEDKKNLDNLLS” yielded a protease stability score of -0.097. The result for “EDEVNKILEDVATAIRTGDPDRVVENLDPNAKVQVGDKTLDGQKEVREFFERNQREASVRLHVTSVHVNGDKVKMKANYQQNRNGNPDFKDVDVTAHAHNGKLKVMEHRRDG” reads -0.451; that for “EDEVRQRAEEFLKAWERGDPETLMRMADPNARFKIGDKEVHGREDYHREHKRQRDQMRYRLHSYEVSASGDKVHVDVSYNMNNNGQPNNSRQTFSARVDNGKIKELNVQSTG”, -0.061. “EDHTLREFQKNWQHNNPDELEKMMDPNVKIVIGDKKYHGKEEAKRINKQIVDQADHIDIRRVEVSGNKLEIRMVLNVNGNTRELVVIFKLHNGRIKHVEFKFTDERQKNFQEEMLQ” registered a protease stability score of 1.08. As for “EDKAKTLLQQYMEAVHQGDPKQVEEMLDPNAQVVIGDKSVRGQNQIQQMVRKLHQHARIDIHVKDLKADGNNVHLTFSQKVEVNGRPERDEATATMVVDNGRAQYLQIEMDETFQRQLEK”, the protease stability score is -0.341. In turn, “EDNRLQEIMEKFIRLMQTGDDHTAANLFDEDARIEYGDHSIRGREEFQKYAKELKDRVDHFDVQTIKNRGDEVHIDVNIHVDGKRVRVNMVVQAENGKVKKLRLDPEVVRHMEK” returned a protease stability score of 1.3. As for “EDQVIRMVKELWKALRKNNPEKFKDLADKNARFEYGDKHVRGRENMQERMEQQVRDQEVDMRVERVEDRGDHVDVKFEKVVNHNGTPSSHSMTAVYVAENGRLKNVRVKETK”, the protease stability score was -0.103. The result for “EDRAQENLHELLKAIQQGDEDSVESLLDKDVKIQVGDKYIHGRENYAEHVRKTRQEIRVNYRIESYSVHNGRAKMTFRANRDDNGKPETWKAQATMEVDNGRITFIHRNKRG” reads -0.045; that for “EDRDKVRRAIKRMLDVMSTGDEDKLREYADENVKINVGDKDVHGREEAARFLKTHADQYDHIDQRIQDVKKENGQVEVRREMEATHNGHTHRDREHIVVEIRGDNMKIKSIQRQ”, -0.409. Under “EDRDQAKHIIKEIMRAIQTGDRKHAMRQVDPNVRIHVGDKVLEGREEFMKWVKDLRDDVDHFHLRIHDMHVENGQLTADAEFVVDHNGQRRKQRMDVVFLVHGDKVRLLRLQEK” stands 1.4; under “EDRERAKELVKRLTDAFRTNNPDDYVRQAPPDVTMQVGDKQYHGRSKVKEWIKQILDRVDHLKIELVDVKRSGEKLRFKAEYHYEHNGKTDRNTMEMVFTIQGDKMKIDDATQQ”, 0.134. “EDRHARRVANDFVRAVRKGDETRLKEQFDEDAEVQVGDTTYTGKERVVKHAQDFANSVDHLDVTDLKVNEDHASLSARVNINGRQDTIRIELRVHNGRLKRVNYDTQ”: the protease stability score is -0.032. The result for “EDRQNQEVNKKAQKGDWQHLRELADKDVTLQVGDKQYHGREKFQELLKKLETSVDRFKVDSITFHNGKVKVRAQAVVNGQKIEFVIIITFHNGRAKSMRIQARDEDLEKELLKMLS” reads 0.944. For the sequence “EDTALKIARTLFDILESNNPDEFNKLADPNARVDVGDKKIHGREEIKKQMETEIQQLRVHYEIKRYDSRPNRAHVIADVEVNHNGQPQSHKLVMRLHFKNGKVTEIKFEYRK”, the protease stability score is -0.053.

In turn, “EDTFVRLVHQMWNDLERGNPEKFRENVDPNARIQVGDQTIHGREQAEEWAERLKRKLQFTVDVKSVTEEPGRIRMRANLINNHNGRPTTKHVIFLANETNGRIKTFRFRQDQ” yielded a protease stability score of 0.103.

“EEDAVDRARKMFENLKTGNEDHFKEQFDPNATIRIGDQKVHGMENLKDHMRKVRKHMRVDFRRVDIKAENGRIDIKARADFSVNGRPVSQHFTARAVVSNGRFKSFELQVSEEDEKKVKS” registered a protease stability score of 0.606. “EEDDQRRLQEWLSQGNFEHLAQNADKDAKASVGEYRVHGREQIKRFLERMQDRIDKVHYETVHFHNGVLRATFRFTVNGKQVVMQMRIEARGDKIKYIEMQARDEDNLKKWKELES”: the protease stability score is 1.03. The result for “EEDELRKIKDLLRHGDFETLNRQAPPDATQTVGDQEFTGWEKLHKIWKDLKDRIDHLDWKRITISGETIEARYEFDVDGQRIDMSFRMEVHNGRIQHLEQRATDSDLQKRLKDVIE” reads 0.069; that for “EEDILKRVKHMLKQLETGNEKEYEKNIDPNVKIKVGDKEIRGREEASRYWHRLRHHMRIRVDVKSMNVKNGQVNMNATVTVDVNGRPVRFEFRMVIHATNGTIKEVTLQVDPDQIRKQLG”, 1.61; that for “EEDKAKEAKEIWDKNNERDLRKKADKDARADVGDKKVHGMETAVQMWSKVRQHVDHVQYHDLKIQGETIRIDFVLHWNGRTVRAQVEFKVSNGQLVDFKLKFTDPDQERKLHEMQK”, 0.123.

As for “EEDKLEHMTKLMTQNDEDRWEELADKNVRIEVGDYRVNGREQASSYLKLLKDQVDDYTVNHIHYQGDKIVANVQASVNGRRFRFQIRITVHNGRLKSMMVKVTDEHFKHVLKNIVG”, the protease stability score was 0.698. Take “EEDLHEAFERIKHALEHGDPKQVQNQFDPNVEVIIGNKTLHGRETLKDEVKKLQDEMQITWRSITINVDGDRVVVHYHIEFRINGQPQSMSYNVDARASNGKIEEMDLRISEDQQKRLNS”: the protease stability score came out at 0.06. Regarding “EEDLLEVMERLYQALRENDPKKAMENVDPNARFKVGNKEYRGREQQSKEDTKKRDKMRVDMRIESMEIHGETVHIDATVVNQVNGQPYRQKVIIRARLHNGQIQELEFQLDPSVQEKVRQ”, the protease stability score was 0.538.

The sequence “EEDLLRKLSKILHQQDTGNEETVEKNADPNARFEVGDHKIHGMDQAAREIASKIREIRQEKRIESVSVHGNKMQIHFTFTQEKNGQPQTRRATMVVVMSNGKIKSMKVQYDK” returned a protease stability score of 0.697. The sequence “EEDNRKHAEDIWRAIRKGDEERLKQLFDKDVKFHVGEKEIHGRENYARSVKERREEIKWSVTLDDVHVRGEKIVIRYTFTENNNGRPRHNVQVLEMTVTNGRVVNVDAKDDK” returned a protease stability score of -0.148. On to “EEDQERQAEKLIRILENGDEDKAKEQADPNARFEYGDKKYHGMSNFATEVKKLRDHARVEFDNIRVRAHGDKVRIRLDFKVNINGDPSRFNVHMFNQMHNGQFKQMYKDLDPTELEQIHK”, for which the protease stability score is -0.25.

Regarding “EEDVSNQVRHAFDLHRSNNPENLEEMFDKNARIRIGDKTIHGREQYSETAEQEIREQKVEYKSIDVKAKNGRVHIRIDFVSNVNGRPKRDSMQQTYEIHNGRISHASIESDS”, the protease stability score is -0.151. “EEDVVEQLKDWYRAVNSGDEERLTQLMDPNAKAEVGDKRVHGMDEYARQQRTRNEKLRFQINSIEIRAKGNHVSVNVDANYHFDGQPRRDTWHIRMQFHNGRLKTLSVTMDPTLLREMEK”: the protease stability score stood at 0.931.

In turn, “EEEAAHQFNKWLSLMKHGNEHKASEMLDKDAHIKVGDKTLQGREDVQRDVRRRKEELKFSMTIVDYKDHGDKARLTVEQTNDHNGRPRTRRANVTVHVSNGRVKEIVINDDS” returned a protease stability score of -0.265.

For the sequence “EEEAFDRAQQFVRAMETGDTTKLEQLADKDVRFDVGDKEVQGREEYSKTVHELKKEMRFRYEFKHYTVTGDEVDARVEFEYEHNGQPRRTQAKVTFIFQGDKLESINMKESQ”, the protease stability score stood at 0.146.

In turn, “EEEAHTHAEQWFRVLQTGDEERAMKMVDKNAQLQIGDKDIHGREDVRKYVHDRKNEQDVEIKRYSIEVSGNSFNVKIHVRMEHNGQPRTDVLDMKFEVSNGRLTKVSVQSNG” returned a protease stability score of 0.021. Sequence “EEEANKHLRQWWRNFRKGSEEKMKNLMDPNVRVVVGDKVYSGREQVMKMVRDQLTHARFDFDLERLSAHNGKIDITMKLVADINGKPVKVHVKADVQYSNGRIESIVLHVDPDQQRKLTE” came in with a protease stability score of 2.19. Sequence “EEEANRNVRKFEQALRHNDPHTLLELVDPNADLQIGNERIKGMHHAAKHLIDWMEEIRVQIRRVTFITRPNHAQLKRKVQAEVNGQPFEYTVEVVFNFHNGRVTEVHMRMDEDKQRKLRS” gave a protease stability score of 0.12.

The sequence “EEEAREAVKRVMKAHETNDPDKMMQNFDPNAKLTIGDTELHGREEARKHWEDNLKEIEIRIETWHVEDEGDKATLKVVYVREHNGQPTRERAVVYLRVKNGKVQTVSNQSRK” came in with a protease stability score of 0.292. Sequence “EEEAVRRYERMLRLVQNNNTEELNKQLDPNVEYDYGNHEIHGREQAVREMLKLQRKMRIEIQFDRVRHEGDKAVVKYTVLFDINGRPITNSATLYVKFKNGKIVYASAQMPEDFQRKVSS” yielded a protease stability score of 0.876. The sequence “EEEDAKRFKHLNERNDFTSLAKQVDEDATLRVGDKEIHGRERVTEFLEKAERAIDHVDIDSVDWSGDHVQFDAKYQVNGTTHHVIVRFRIHNGRIKYMQWDFTDDEVARRFLDNVQ” showed a protease stability score of 0.573. Turning to “EEEDEKRIKSLLEHNDFTRFAELVDKDAHAVIGDKTIHGREEIKKEIEEFKKRIDHLEWKRVDVRNGKVSARMQVTINGRTLDVYMRADVENGHIHYVEIHARTEEAQRVLDEVLS”, the protease stability score worked out at 1.58. Sequence “EEEDLKQVRKFLDAERDNDEDRLRELVDPNARFKVGDKTYHGMEDYVREVVHRMRQMQFEVDSIDNTVEGDHVRMRIHRTYRHNGKPSTKVYVLKARLHNGKIKHMQQDDDK” showed a protease stability score of 0.152. The sequence “EEEDTKLMKQYADAVNNNNPDELRRQADENVRFEVGDNVFHGRKEYIKDVERKLRNIRITMNVKSLTVEGDKVNVTFEERHNKNGKPETFTAKARAHFHNGRIHSIRYEKDG” gave a protease stability score of 0.049. On to “EEEDVETAKQFIEAEEKGDEDRLVELADPNARFNVGDKNLHGREHAAREMRKHQEEADLRLEDVRLDVHNGRVDIELVFTHRHNGQPTRQKVKLTFEQHNGQLTHVQNDETK”, for which the protease stability score was determined as 0.558.

“EEEDVKRVEEDLHNGDPDRLRDLMDKDVSVEYGDKTVNGRENAAEIWEHIRRNVDRIRIVSMHVKNGKINFDLTAEVNGTKFQIRVVWELRNGRAKSVKIEVTDEEVKKLLDRLLQ” registered a protease stability score of 2.04.
